Reference: US20140087995A1 (published 2014)
Numbered stars: 1 amine (or outer) side, 2 acyl side, 3 side chain; on linkers, the order of the positions; unused ones are H or OH. Bridge positions count the residues as written; N and C are the ends. Side chains are listed from the residue outwards. Ends that are not written are not given here. * marks the point of attachment. C20 diacid = O=C(O)CCCCCCCCCCCCCCCCCCC(=O)*; γGlu = O=C(O)[C@H](CCC(=O)[*:2])N[*:1]; AEEA = NCCOCCOCC(=O)O

T1: rat calcitonin receptor (rat, UniProt P32214 25-516)
T1 construct: whole, on cells; Used as membranes prepared from the transfected cells; also called rCTR; rCT
T1 sequence (looked up): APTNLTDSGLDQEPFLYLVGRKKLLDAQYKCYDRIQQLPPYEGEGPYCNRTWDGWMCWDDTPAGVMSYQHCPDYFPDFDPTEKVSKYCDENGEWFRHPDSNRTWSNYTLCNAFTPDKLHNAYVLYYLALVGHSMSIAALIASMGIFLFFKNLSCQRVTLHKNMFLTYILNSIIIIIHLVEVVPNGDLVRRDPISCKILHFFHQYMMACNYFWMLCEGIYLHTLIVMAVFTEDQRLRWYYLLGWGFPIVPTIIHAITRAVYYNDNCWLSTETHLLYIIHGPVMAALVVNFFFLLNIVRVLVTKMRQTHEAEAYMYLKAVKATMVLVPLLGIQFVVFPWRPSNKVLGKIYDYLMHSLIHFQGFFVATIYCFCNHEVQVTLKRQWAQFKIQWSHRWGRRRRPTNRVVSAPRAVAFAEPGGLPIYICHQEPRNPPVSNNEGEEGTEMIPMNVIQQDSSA

T2: human calcitonin receptor (human, UniProt P30988 25-474)
T2 construct: whole, on cells; Used as membranes prepared from the transfected cells; also called hCTR; hCT
T2 sequence (looked up): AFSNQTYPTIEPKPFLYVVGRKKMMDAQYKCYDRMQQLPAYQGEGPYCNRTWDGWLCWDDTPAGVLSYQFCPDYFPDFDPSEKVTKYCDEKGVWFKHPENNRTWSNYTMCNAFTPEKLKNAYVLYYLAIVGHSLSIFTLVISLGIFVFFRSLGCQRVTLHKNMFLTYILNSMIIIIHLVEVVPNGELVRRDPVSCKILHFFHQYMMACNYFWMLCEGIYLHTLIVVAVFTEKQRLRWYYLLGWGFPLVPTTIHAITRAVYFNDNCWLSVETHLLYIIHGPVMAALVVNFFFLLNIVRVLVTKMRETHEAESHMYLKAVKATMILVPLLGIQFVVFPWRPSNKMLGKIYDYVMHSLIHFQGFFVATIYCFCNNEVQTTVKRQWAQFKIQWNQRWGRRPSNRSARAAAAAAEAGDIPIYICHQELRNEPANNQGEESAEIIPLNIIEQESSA

T3: rat amylin receptor (rat calcitonin receptor with rat RAMP 3) (rat, UniProt P32214 25-516; Q9JJ73 23-147)
T3 construct: whole, on cells; Used as membranes prepared from the transfected cells; also called rAmylin-R; rAmylin
T3 sequence (looked up) 1: T1 sequence (looked up)
T3 sequence (looked up) 2: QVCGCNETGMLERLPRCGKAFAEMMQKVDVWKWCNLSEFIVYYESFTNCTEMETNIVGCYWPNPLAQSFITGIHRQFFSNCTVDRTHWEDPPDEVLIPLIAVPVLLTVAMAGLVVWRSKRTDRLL

B1: N^ε1-[2-[2-[2-[[2-[2-[2-[[(4S)-4-carboxy-4-(19-carboxynonadecanoylamino)butanoyl]amino]ethoxy]ethoxy]acetyl]amino]ethoxy]ethoxy]acetyl]-[Arg17,Pro21,Pro27,Arg34 … (peptide)
peptide: K([AEEA-AEEA-γGlu-C20 diacid])CNTATCATQRLANFLRHSSPNFGAIPSSTNVGRNTY-NH2
modifications: disulfide 2-7; N-terminus assumed
SMILES: CC[C@H](C)[C@H](NC(=O)[C@H](C)NC(=O)CNC(=O)[C@H](Cc1ccccc1)NC(=O)[C@H](CC(N)=O)NC(=O)[C@@H]1CCCN1C(=O)[C@H](CO)NC(=O)[C@H](CO)NC(=O)[C@H](Cc1c[nH]cn1)NC(=O)[C@H](CCCNC(=N)N)NC(=O)[C@H](CC(C)C)NC(=O)[C@H](Cc1ccccc1)NC(=O)[C@H](CC(N)=O)NC(=O)[C@H](C)NC(=O)[C@H](CC(C)C)NC(=O)[C@H](CCCNC(=N)N)NC(=O)[C@H](CCC(N)=O)NC(=O)[C@@H](NC(=O)[C@H](C)NC(=O)[C@@H]1CSSC[C@H](NC(=O)[C@@H](N)CCCCNC(=O)COCCOCCNC(=O)COCCOCCNC(=O)CC[C@H](NC(=O)CCCCCCCCCCCCCCCCCCC(=O)O)C(=O)O)C(=O)N[C@@H](CC(N)=O)C(=O)N[C@@H]([C@@H](C)O)C(=O)N[C@@H](C)C(=O)N[C@@H]([C@@H](C)O)C(=O)N1)[C@@H](C)O)C(=O)N1CCC[C@H]1C(=O)N[C@@H](CO)C(=O)N[C@@H](CO)C(=O)N[C@H](C(=O)N[C@@H](CC(N)=O)C(=O)N[C@H](C(=O)NCC(=O)N[C@@H](CCCNC(=N)N)C(=O)N[C@@H](CC(N)=O)C(=O)N[C@H](C(=O)N[C@@H](Cc1ccc(O)cc1)C(N)=O)[C@@H](C)O)C(C)C)[C@@H](C)O
notes: Analogue of human amylin; disulfide and C-terminal amide as told for h-amylin; also called compound 95
B2: N^ε1-[2-[2-[2-[[2-[2-[2-[[(4S)-4-carboxy-4-(19-carboxynonadecanoylamino)butanoyl]amino]ethoxy]ethoxy]acetyl]amino]ethoxy]ethoxy]acetyl]-[Arg17,Pro21,Pro27,His34 … (peptide)
peptide: K([AEEA-AEEA-γGlu-C20 diacid])CNTATCATQRLANFLRHSSPNFGAIPSSTNVGHNTY-NH2
modifications: disulfide 2-7; N-terminus assumed
SMILES: CC[C@H](C)[C@H](NC(=O)[C@H](C)NC(=O)CNC(=O)[C@H](Cc1ccccc1)NC(=O)[C@H](CC(N)=O)NC(=O)[C@@H]1CCCN1C(=O)[C@H](CO)NC(=O)[C@H](CO)NC(=O)[C@H](Cc1c[nH]cn1)NC(=O)[C@H](CCCNC(=N)N)NC(=O)[C@H](CC(C)C)NC(=O)[C@H](Cc1ccccc1)NC(=O)[C@H](CC(N)=O)NC(=O)[C@H](C)NC(=O)[C@H](CC(C)C)NC(=O)[C@H](CCCNC(=N)N)NC(=O)[C@H](CCC(N)=O)NC(=O)[C@@H](NC(=O)[C@H](C)NC(=O)[C@@H]1CSSC[C@H](NC(=O)[C@@H](N)CCCCNC(=O)COCCOCCNC(=O)COCCOCCNC(=O)CC[C@H](NC(=O)CCCCCCCCCCCCCCCCCCC(=O)O)C(=O)O)C(=O)N[C@@H](CC(N)=O)C(=O)N[C@@H]([C@@H](C)O)C(=O)N[C@@H](C)C(=O)N[C@@H]([C@@H](C)O)C(=O)N1)[C@@H](C)O)C(=O)N1CCC[C@H]1C(=O)N[C@@H](CO)C(=O)N[C@@H](CO)C(=O)N[C@H](C(=O)N[C@@H](CC(N)=O)C(=O)N[C@H](C(=O)NCC(=O)N[C@@H](Cc1c[nH]cn1)C(=O)N[C@@H](CC(N)=O)C(=O)N[C@H](C(=O)N[C@@H](Cc1ccc(O)cc1)C(N)=O)[C@@H](C)O)C(C)C)[C@@H](C)O
notes: Analogue of human amylin; disulfide and C-terminal amide as told for h-amylin; also called compound 97
B3: N^ε1-[2-[2-[2-[[2-[2-[2-[[(4S)-4-carboxy-4-(19-carboxynonadecanoylamino)butanoyl]amino]ethoxy]ethoxy]acetyl]amino]ethoxy]ethoxy]acetyl]-[Arg17,Pro21,Pro27,Pro34 … (peptide)
peptide: K([AEEA-AEEA-γGlu-C20 diacid])CNTATCATQRLANFLRHSSPNFGAIPSSTNVGPNTY-NH2
modifications: disulfide 2-7; N-terminus assumed
SMILES: CC[C@H](C)[C@H](NC(=O)[C@H](C)NC(=O)CNC(=O)[C@H](Cc1ccccc1)NC(=O)[C@H](CC(N)=O)NC(=O)[C@@H]1CCCN1C(=O)[C@H](CO)NC(=O)[C@H](CO)NC(=O)[C@H](Cc1c[nH]cn1)NC(=O)[C@H](CCCNC(=N)N)NC(=O)[C@H](CC(C)C)NC(=O)[C@H](Cc1ccccc1)NC(=O)[C@H](CC(N)=O)NC(=O)[C@H](C)NC(=O)[C@H](CC(C)C)NC(=O)[C@H](CCCNC(=N)N)NC(=O)[C@H](CCC(N)=O)NC(=O)[C@@H](NC(=O)[C@H](C)NC(=O)[C@@H]1CSSC[C@H](NC(=O)[C@@H](N)CCCCNC(=O)COCCOCCNC(=O)COCCOCCNC(=O)CC[C@H](NC(=O)CCCCCCCCCCCCCCCCCCC(=O)O)C(=O)O)C(=O)N[C@@H](CC(N)=O)C(=O)N[C@@H]([C@@H](C)O)C(=O)N[C@@H](C)C(=O)N[C@@H]([C@@H](C)O)C(=O)N1)[C@@H](C)O)C(=O)N1CCC[C@H]1C(=O)N[C@@H](CO)C(=O)N[C@@H](CO)C(=O)N[C@H](C(=O)N[C@@H](CC(N)=O)C(=O)N[C@H](C(=O)NCC(=O)N1CCC[C@H]1C(=O)N[C@@H](CC(N)=O)C(=O)N[C@H](C(=O)N[C@@H](Cc1ccc(O)cc1)C(N)=O)[C@@H](C)O)C(C)C)[C@@H](C)O
notes: Analogue of human amylin; disulfide and C-terminal amide as told for h-amylin; also called compound 98
B4: N^ε1-[(4S)-4-carboxy-4-(19-carboxynonadecanoylamino)butanoyl]-[Ala14,Arg17,Pro21,Pro27,Pro34]-h-amylin (peptide)
peptide: K([γGlu-C20 diacid])CNTATCATQRLAAFLRHSSPNFGAIPSSTNVGPNTY-NH2
modifications: disulfide 2-7; N-terminus assumed
SMILES: CC[C@H](C)[C@H](NC(=O)[C@H](C)NC(=O)CNC(=O)[C@H](Cc1ccccc1)NC(=O)[C@H](CC(N)=O)NC(=O)[C@@H]1CCCN1C(=O)[C@H](CO)NC(=O)[C@H](CO)NC(=O)[C@H](Cc1c[nH]cn1)NC(=O)[C@H](CCCNC(=N)N)NC(=O)[C@H](CC(C)C)NC(=O)[C@H](Cc1ccccc1)NC(=O)[C@H](C)NC(=O)[C@H](C)NC(=O)[C@H](CC(C)C)NC(=O)[C@H](CCCNC(=N)N)NC(=O)[C@H](CCC(N)=O)NC(=O)[C@@H](NC(=O)[C@H](C)NC(=O)[C@@H]1CSSC[C@H](NC(=O)[C@@H](N)CCCCNC(=O)CC[C@H](NC(=O)CCCCCCCCCCCCCCCCCCC(=O)O)C(=O)O)C(=O)N[C@@H](CC(N)=O)C(=O)N[C@@H]([C@@H](C)O)C(=O)N[C@@H](C)C(=O)N[C@@H]([C@@H](C)O)C(=O)N1)[C@@H](C)O)C(=O)N1CCC[C@H]1C(=O)N[C@@H](CO)C(=O)N[C@@H](CO)C(=O)N[C@H](C(=O)N[C@@H](CC(N)=O)C(=O)N[C@H](C(=O)NCC(=O)N1CCC[C@H]1C(=O)N[C@@H](CC(N)=O)C(=O)N[C@H](C(=O)N[C@@H](Cc1ccc(O)cc1)C(N)=O)[C@@H](C)O)C(C)C)[C@@H](C)O
notes: Analogue of human amylin; disulfide and C-terminal amide as told for h-amylin; also called compound 94
B5: N^ε1-[2-[2-[2-[[2-[2-[2-[[(4S)-4-carboxy-4-(19-carboxynonadecanoylamino)butanoyl]amino]ethoxy]ethoxy]acetyl]amino]ethoxy]ethoxy]acetyl]-[Arg17,Pro21,Pro27,Pro31 … (peptide)
peptide: K([AEEA-AEEA-γGlu-C20 diacid])CNTATCATQRLANFLRHSSPNFGAIPSSTPVGSNTY-NH2
modifications: disulfide 2-7; N-terminus assumed
SMILES: CC[C@H](C)[C@H](NC(=O)[C@H](C)NC(=O)CNC(=O)[C@H](Cc1ccccc1)NC(=O)[C@H](CC(N)=O)NC(=O)[C@@H]1CCCN1C(=O)[C@H](CO)NC(=O)[C@H](CO)NC(=O)[C@H](Cc1c[nH]cn1)NC(=O)[C@H](CCCNC(=N)N)NC(=O)[C@H](CC(C)C)NC(=O)[C@H](Cc1ccccc1)NC(=O)[C@H](CC(N)=O)NC(=O)[C@H](C)NC(=O)[C@H](CC(C)C)NC(=O)[C@H](CCCNC(=N)N)NC(=O)[C@H](CCC(N)=O)NC(=O)[C@@H](NC(=O)[C@H](C)NC(=O)[C@@H]1CSSC[C@H](NC(=O)[C@@H](N)CCCCNC(=O)COCCOCCNC(=O)COCCOCCNC(=O)CC[C@H](NC(=O)CCCCCCCCCCCCCCCCCCC(=O)O)C(=O)O)C(=O)N[C@@H](CC(N)=O)C(=O)N[C@@H]([C@@H](C)O)C(=O)N[C@@H](C)C(=O)N[C@@H]([C@@H](C)O)C(=O)N1)[C@@H](C)O)C(=O)N1CCC[C@H]1C(=O)N[C@@H](CO)C(=O)N[C@@H](CO)C(=O)N[C@H](C(=O)N1CCC[C@H]1C(=O)N[C@H](C(=O)NCC(=O)N[C@@H](CO)C(=O)N[C@@H](CC(N)=O)C(=O)N[C@H](C(=O)N[C@@H](Cc1ccc(O)cc1)C(N)=O)[C@@H](C)O)C(C)C)[C@@H](C)O
notes: Analogue of human amylin; disulfide and C-terminal amide as told for h-amylin; also called compound 96

Target: T1, rat calcitonin receptor
Test: SPA competition with 125I-calcitonin, membranes with rat calcitonin receptor (Assay VIII)

IC50 [nM] | Binder
388 | B1
159 | B2
24.1 | B3
111 | B4
62.2 | B5

Target: T1, rat calcitonin receptor
Test: ratio of binding IC50 at rat calcitonin receptor to IC50 at rat amylin receptor (reference)

Ratio rCT/rAmylin binding | Binder
71.3 | B1
71.1 | B2
176 | B3
280 | B4
118 | B5

Target: T2, human calcitonin receptor
Test: ratio of binding IC50 at human calcitonin receptor to IC50 at human amylin receptor (reference)
Summary of the method: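 Membranes (35 ng/μL final) + SPA beads, 50 mM Hepes pH 7.4 buffer with 1 mM CaCl2, 5 mM MgCl₂, 0.1% OA, 0.02% Tween20; 120 min, 25° C, shaking; centrifuged, counted; IC₅₀ by one-site binding competition.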

Ratio hCT/hAmylin binding | Binder
63.4 | B1
104 | B2
74.1 | B3
46.3 | B4
79.6 | B5

Target: T3, rat amylin receptor (rat calcitonin …)
Test: SPA competition with 125I-rat amylin, membranes with rat calcitonin receptor + rat RAMP3 (Assay VI)

IC50 [nM] | Binder
5.45 | B1
2.24 | B2
0.137 | B3
0.397 | B4
0.529 | B5
